Measured values from article PMC4133399.

Columns and labels:
[1] = target: NBD-labelled gp41 mutant peptide (HIV-1); experiment: FRET or BRET; NBD-labelled gp41 TMD or mutant peptide (donor, 0.1 µM) in PC∶Chol 9∶1 LUVs, titrated with Rho-labelled TLR2 TMD peptide at 1∶40, 1∶20, 1∶10 and 1∶1 acceptor∶donor; decrease of donor emission at 530 nm
[2] = target: NBD-labelled gp41 TMD peptide (HIV-1); experiment: as above
[3] = target: GpA G83I TMD (LexA-TMD-MBP chimera); experiment: GALLEX assay (β-gal activity of LexA-TMD-MBP chimera proteins); conditions: n = 3; strong dimerization results in low β-gal activity; parent: est. 20; read off a plot
[4] = target: LexA-TMD-MBP chimera protein with the TLR2 TMD (GALLEX) (UniProt O60603); experiment: as above; conditions: n = 3; strong dimerization results in low β-gal activity; parent: est. 48; read off a plot
[5] = target: TLR2 protein of RAW264.7 murine macrophages (mouse (endogenous in RAW264.7)) (UniProt Q9QUN7)
[6] = target: TLR2 protein of RAW264.7 murine macrophages (mouse (endogenous in RAW264.7)) (UniProt Q9QUN7); remark: listed apart in the source

Chain of UniProt Q9QUN7 (Q9QUN7 25-784): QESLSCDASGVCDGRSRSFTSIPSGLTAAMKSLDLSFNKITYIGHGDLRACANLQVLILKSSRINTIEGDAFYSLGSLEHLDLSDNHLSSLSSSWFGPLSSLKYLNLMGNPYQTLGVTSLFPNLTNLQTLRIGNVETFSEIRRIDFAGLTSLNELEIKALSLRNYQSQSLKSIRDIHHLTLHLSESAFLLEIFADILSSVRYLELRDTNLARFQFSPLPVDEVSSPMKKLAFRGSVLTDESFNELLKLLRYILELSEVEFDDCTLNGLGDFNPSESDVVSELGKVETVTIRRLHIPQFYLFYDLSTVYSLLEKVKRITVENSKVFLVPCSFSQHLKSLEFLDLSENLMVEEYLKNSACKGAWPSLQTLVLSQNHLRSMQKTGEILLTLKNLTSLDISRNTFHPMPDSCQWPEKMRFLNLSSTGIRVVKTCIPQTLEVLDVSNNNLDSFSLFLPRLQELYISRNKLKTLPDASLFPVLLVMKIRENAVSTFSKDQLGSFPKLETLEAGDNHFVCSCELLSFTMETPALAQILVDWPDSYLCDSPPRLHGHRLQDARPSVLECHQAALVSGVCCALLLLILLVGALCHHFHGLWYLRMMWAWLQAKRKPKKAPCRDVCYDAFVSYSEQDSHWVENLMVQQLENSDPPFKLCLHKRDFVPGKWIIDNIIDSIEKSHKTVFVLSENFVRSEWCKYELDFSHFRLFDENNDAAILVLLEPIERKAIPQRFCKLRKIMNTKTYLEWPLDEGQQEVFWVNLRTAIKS
Chain of UniProt O60603 (O60603 21-784, change not shown): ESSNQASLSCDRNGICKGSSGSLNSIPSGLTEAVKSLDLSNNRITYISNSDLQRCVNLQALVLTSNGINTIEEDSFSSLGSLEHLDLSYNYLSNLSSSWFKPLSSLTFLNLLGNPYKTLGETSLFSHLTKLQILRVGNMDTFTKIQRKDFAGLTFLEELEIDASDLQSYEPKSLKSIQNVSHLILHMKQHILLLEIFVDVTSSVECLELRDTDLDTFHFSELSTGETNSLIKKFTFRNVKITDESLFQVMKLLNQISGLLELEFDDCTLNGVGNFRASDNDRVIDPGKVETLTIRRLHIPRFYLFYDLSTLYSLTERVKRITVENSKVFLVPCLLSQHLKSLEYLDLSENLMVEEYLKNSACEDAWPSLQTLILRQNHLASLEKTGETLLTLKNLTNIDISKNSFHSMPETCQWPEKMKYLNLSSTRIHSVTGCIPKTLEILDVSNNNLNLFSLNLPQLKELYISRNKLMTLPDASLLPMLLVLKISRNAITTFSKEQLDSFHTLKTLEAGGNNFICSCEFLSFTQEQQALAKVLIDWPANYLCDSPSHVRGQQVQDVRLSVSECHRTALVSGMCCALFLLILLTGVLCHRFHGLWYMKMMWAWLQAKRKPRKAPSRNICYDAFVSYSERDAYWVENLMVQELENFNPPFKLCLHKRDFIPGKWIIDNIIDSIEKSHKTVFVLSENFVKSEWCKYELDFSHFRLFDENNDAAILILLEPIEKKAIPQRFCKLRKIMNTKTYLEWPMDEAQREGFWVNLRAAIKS

For Rho-labeled TLR2 TMD peptide, which decrease of the NBD donor emission at 530 nm (FRET) [1] is on record?
The decrease of the NBD donor emission at 530 nm (FRET) was under 25%.

What about the decrease of the NBD donor emission at 530 nm (FRET) at 1∶1 ratio [2] of the same substance?
The decrease of the NBD donor emission at 530 nm (FRET) at 1∶1 ratio was over 60%.

With “LexA-TMD-MBP chimera protein with the Glycophorin A (GpA) TMD (GALLEX) G83I” as the substance, how does the response [3] read?
Its response is 100%.

“LexA-TMD-MBP chimera protein with the gp41 wild type TMD (GALLEX) (from UniProt P04578) gp41 mutant” was tested. Which response [4] did it give?
Its response is 68%.

Which results are given for unlabeled WT gp41 TMD peptide?
MCP1 mRNA expression in LTA-activated RAW264.7 cells (real-time PCR), decrease against non-treated cells [5]: 45%; TNFα mRNA expression in LTA-activated RAW264.7 cells (real-time PCR), decrease against non-treated cells [5]: 72%; ERK1,2 phosphorylation in RAW264.7 cells 20 minutes after LTA, cells pre-treated with the peptide for 2 hours (decrease of p-ERK band intensity) [6]: > 50%
